Here are results for nine compounds from patent publication US8466107B2, “Fibrin-binding peptides and conjugates thereof” (Bracco Imaging SpA, priority 2006, dated 2013).

Assay [1] has as its system neuroblastoma (Neuro-2a) tumor. The experiment in a line: In vivo MRI test of fibrin imaging in neuroblastoma tumor mouse model. The following applies: mice with neuroblastoma tumor; 25 μmol/kg iv.; T1 weighted MRI at 2T, 4 h post injection. The source says: Three groups of 5 mice each, inoculated with 2·10^6 neuroblastoma cells with PBS, were formed and tested as follows: • Group a: Reference compound 2, • Group b: Chelate Complex 1 • Group c: ProHance® (see Protocol)
At day-10 post tumor cells inoculation, at least 4 mice per group with similar tumor size (5-10 mm in diameter) were selected for the in vivo MRI tests. After pre-contrast MRI acquisition (T1 and T2 high resolution 2D spin-echo and 3D gradient echo images), the test compounds were administered (25 μmol/kg iv.) and MRI was performed at 4 h and 24 h post injection. Maximum signal intensity was measured in the entire tumor area and in each post contrast image covering the whole tumor and the signal was compared to the pre-contrast images. At the end of MRI exams, all animals were sacrificed and the tumor, blood, liver, kidneys and femoral bone were removed and prepared for Gd assay by ICP-AES. […]
The mean signal intensity was measured within a region of interest (ROI) including the entire tumor, drawn by an operator on each MR image using dedicated software (MR Research Systems Ltd, Surrey UK). Signal intensity enhancement (Enh %) was determined as: Enh%=100*(SIx(t)−SI0)/SI0 […]

Another assay addresses T1, fibrin (Homo sapiens, UniProt P02671+P02675+P02679).
T1 sequence (P02671 36-629 limits assumed): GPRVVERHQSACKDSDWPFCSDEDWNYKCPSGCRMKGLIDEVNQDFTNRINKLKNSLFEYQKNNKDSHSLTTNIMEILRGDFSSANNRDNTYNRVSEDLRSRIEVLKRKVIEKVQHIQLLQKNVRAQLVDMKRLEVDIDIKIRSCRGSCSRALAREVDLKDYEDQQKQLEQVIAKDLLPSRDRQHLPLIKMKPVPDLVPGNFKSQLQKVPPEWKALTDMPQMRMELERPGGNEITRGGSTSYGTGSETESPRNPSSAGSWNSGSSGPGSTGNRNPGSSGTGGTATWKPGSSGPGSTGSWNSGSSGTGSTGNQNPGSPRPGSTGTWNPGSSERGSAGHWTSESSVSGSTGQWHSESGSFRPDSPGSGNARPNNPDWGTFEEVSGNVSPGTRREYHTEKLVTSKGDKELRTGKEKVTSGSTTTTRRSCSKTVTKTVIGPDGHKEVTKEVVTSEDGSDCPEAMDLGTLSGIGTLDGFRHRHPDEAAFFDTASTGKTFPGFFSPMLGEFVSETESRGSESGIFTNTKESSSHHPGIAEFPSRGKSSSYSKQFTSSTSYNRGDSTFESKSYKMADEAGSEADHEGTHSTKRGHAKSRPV
T1 sequence (P02675 45-491 limits assumed): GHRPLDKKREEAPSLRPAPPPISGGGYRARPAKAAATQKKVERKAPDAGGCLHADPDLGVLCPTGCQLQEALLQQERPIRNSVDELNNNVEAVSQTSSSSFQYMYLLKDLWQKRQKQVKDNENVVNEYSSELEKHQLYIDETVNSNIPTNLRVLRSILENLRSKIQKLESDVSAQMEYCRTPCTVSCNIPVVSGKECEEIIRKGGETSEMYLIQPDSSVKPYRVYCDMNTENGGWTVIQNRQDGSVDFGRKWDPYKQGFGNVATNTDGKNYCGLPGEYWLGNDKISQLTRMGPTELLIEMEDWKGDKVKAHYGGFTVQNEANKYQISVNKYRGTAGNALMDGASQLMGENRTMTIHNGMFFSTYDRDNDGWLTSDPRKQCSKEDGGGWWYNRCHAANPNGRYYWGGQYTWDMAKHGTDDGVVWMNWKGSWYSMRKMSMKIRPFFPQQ
T1 sequence (P02679 27-437 isoform P02679-2 limits assumed): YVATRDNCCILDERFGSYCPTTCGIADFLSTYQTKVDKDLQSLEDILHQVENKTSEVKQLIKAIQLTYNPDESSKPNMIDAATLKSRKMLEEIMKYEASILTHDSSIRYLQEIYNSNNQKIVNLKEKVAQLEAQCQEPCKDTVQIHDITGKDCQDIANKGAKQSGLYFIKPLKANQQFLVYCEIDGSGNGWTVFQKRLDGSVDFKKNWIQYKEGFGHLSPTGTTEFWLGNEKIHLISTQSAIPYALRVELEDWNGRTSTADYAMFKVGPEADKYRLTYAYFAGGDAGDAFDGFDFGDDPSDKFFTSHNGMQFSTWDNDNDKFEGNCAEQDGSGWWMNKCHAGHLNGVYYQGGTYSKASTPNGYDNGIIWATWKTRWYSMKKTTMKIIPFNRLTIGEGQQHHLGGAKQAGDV
The experiment in a line: Dynamic binding test of targeted microvesicles on fibrin-coated coverslips in a parallel-plate flow chamber. The following applies: shear rate about 114 s^-1, 10 min, 50% human plasma. As for the experimental part:
Glass coverslips (40 mm in diameter, Bioptechs Inc., Butler, Pa., USA) were coated with fibrin according the following methodology.
Five mL of a solution of BSA 1% w/v in PBS pH 7.4 were added into a 60 mm Petri Dish containing one coverslip, and incubated at 37° C. for 15 min. Then the coverslip was washed three times with 5 ml of Tween 80/PBS (0.1%, v:v). Twenty five μL of human thrombin solution at 5 U/mL were added per mL of human fibrinogen solution (0.5 mg/mL in 50 mM sodium phosphate, NaCl 280 mM, pH 7.4) and delicately mixed. Five mL of this solution were immediately distributed in each Petri dish. The coverslips were incubated for one hour at 37° C. and then dried overnight at 45° C.
Binding studies of targeted microvesicles were carried out using a parallel-plate flow chamber (FCS2, Bioptech Inc., Butler, Pa., USA) with a chamber gasket of 0.25 mm in thickness, with a customized adapter for upside-down chamber inversion. The coated coverslip was inserted as a plate of the flow chamber. Gas-filled Microvesicles (5×10^6 bubbles/mL in 50% human plasma in PBS) were drawn through the flow chamber using an adjustable infusion pump (Auto Syringe® AS50 Infusion Pump, Baxter, Deerfield, Ill., USA) with a 60 mL syringe (Terumo). The pump flow rate was adjusted to 1 mL/min to obtain the desired shear rate of about 114 s^−1. After 10 minutes, the flow was stopped and pictures were taken randomly on different positions on the coverslip (on surfaces of about 0.025 mm^2) using a 40× objective and a CCD monochrome camera (F-View II, Soft Imaging Systems, Germany) connected to an inverted Olympus IX 50 microscope. The number of microvesicles on each picture was determined, averaged with respect to the total number of pictures and the obtained value was then divided by ten (to obtain the “slope”, i.e. the average amount of bound microvesicles per minute).
For each preparation of Examples 17-20, the binding assay was repeated four times thus obtaining an average value of the slope. The slope represents the microvesicle binding rate on the target substrate. […] A higher slope indicates a better capacity of microvesicles to bind to the target under flow conditions.

Setting [2] is: microvesicles with DPPE/DPPG envelope containing the lipopeptide (Examples 18A-18C), slope = average bound microvesicles per minute.
The mark [3] stands for this setting: microvesicles with DSPC/stearate envelope containing the lipopeptide (Examples 20A-20D).
[4] abbreviates: microvesicles with DSPC/DSPG envelope, Examples 19C-19E (0.45 μmoles lipopeptide, 0.45 μmoles DSPE-PEG1000).
Where [5] appears, read: microvesicles with DSPC/DPPG envelope containing the lipopeptide (Examples 17A-17B, molar ratio 47.5/47.5/5), slope = average bound microvesicles per minute.
Where [6] appears, read: microvesicles with DSPC/DSPA envelope, 0.26 μmoles lipopeptide (Examples 20E, 20G, 20H).

Numbered stars: 1 amine (or outer) side, 2 acyl side, 3 side chain; on linkers, the order of the positions; unused ones are H or OH. Bridge positions count the residues as written; N and C are the ends. Square brackets hold non-standard residues; d marks the D form. Side chains are listed from the residue outwards. Ends that are not written are not given here. * marks the point of attachment. DSPE = distearoyl phosphatidylethanolamine, CCCCCCCCCCCCCCCCCC(=O)OC[C@H](COP(=O)(O)OCCN*)OC(=O)CCCCCCCCCCCCCCCCC; DPPE = CCCCCCCCCCCCCCCC(=O)OC[C@H](COP(=O)(O)OCCN*)OC(=O)CCCCCCCCCCCCCCC; Tuda = 3,6,9-trioxaundecane-1,11-dioyl, O=C(COCCOCCOCC(=O)[*:3])[*:2]; Glutaryl = O=C(CCCC(=O)[*:2])[*:1]; PG4 = not defined here; AEEA = NCCOCCOCC(=O)O

For the compound `CC(O)CN1CCN(CC(=O)[O-])CCN(CC(=O)[O-])CCN(CC(=O)[O-])CC1.[Gd+3]` (centres unmarked) [ProHance®, reference compound], in assay [1], the tumor signal enhancement entry is recorded as “no signal enhancement was observed inside the tumors”.

Regarding “Ac-SGSGJWQPC*PWESWTFC*WDPGGGK(DSPE-PG4-Glut)-NH2 (Ac-SGSG[AEEA]WQPCPWESWTFCWDPGGGK-NH2; disulfide 9-17; not fully specified (residue 24); printed as Ac-SGSGJWQPC*PWESWTFC*WDPGGGK(DSPE-PG4-Glut)-NH2) [Seq017-PL1]”, the Slope in the assay with fibrin (setting [2]) is given as 8.9; with fibrin (setting [3]) it was 3.1.

“Ac-SGSGSGSGWQPC*PWESWTFC*WDPGGGK(DSPE-PG4-Glut)-NH2 (Ac-SGSGSGSGWQPCPWESWTFCWDPGGGK([Glutaryl-PG4-DSPE])-NH2; disulfide 12-20; reading uncertain; also: printed as Ac-SGSGSGSGWQPC*PWESWTFC*WDPGGGK(DSPE-PG4-Glut)-NH2) [Seq024-PL1]” came in with a Slope with fibrin (setting [4]) of 6.2.

For “Ac-WQPC*PAESWTFC*WDPGGGK(DSPE-PG4-Glut)-NH2 (Ac-WQPCPAESWTFCWDPGGGK([Glutaryl-PG4-DSPE])-NH2; disulfide 4-12; reading uncertain; also: printed as Ac-WQPC*PAESWTFC*WDPGGGK(DSPE-PG4-Glut)-NH2) [Seq005-PL1]”, the Slope is 7.2 in the assay with fibrin (setting [2]), 8.54 with fibrin (setting [5]) and 6.1 with fibrin (setting [3]).

Turning to “Ac-WQPC*PWESWTFC*WDPGGGK(DPPE-PG4-Glut)-NH2 (Ac-WQPCPWESWTFCWDPGGGK([Glutaryl-PG4-DPPE])-NH2; disulfide 4-12; reading uncertain) [Seq000-PL1, reference compound]”, the Slope with fibrin (setting [2]) is reported as 4.8; with fibrin (setting [5]), 6.44; in the assay with fibrin (microvesicles with DSPC/DSPG envelope, Example 19A (0.63 μmole lipopeptide, 0.28 μmole DSPE-PEG1000)) it was 4.4; with fibrin (microvesicles with DSPC/DSPG envelope, Example 19B (0.36 μmole lipopeptide, 1.44 μmoles DSPE-PEG1000)), 4.9; in the assay with fibrin (setting [3]) it was 1.6.

Turning to “Ac-WQPCPAESWTFCWDPGAGSGK(DPPE-Pro9-Glut-Ttda-Dga)-NH2 (Ac-WQPCPAESWTFCWDPGAGSGK-NH2; disulfide 4-12 (inferred); not fully specified (residue 21)) [Seq005-PL5]”, the Slope in the assay with fibrin (setting [6]) is 6.0.

Turning to “Ac-WQPCPAESWTFCWDPGSAGSK(DPPE-Pro9-Glut-Ttda-Dga)-NH2 (Ac-WQPCPAESWTFCWDPGSAGSK-NH2; disulfide 4-12 (inferred); not fully specified (residue 21)) [Seq005-PL4]”, the Slope with fibrin (setting [6]) stood at 6.4; with fibrin (microvesicles with DSPC/DSPA envelope, 0.795 μmoles lipopeptide (Example 20F)), 8.0.

Consider “RWQPC*PWESWTFC*WDPGGGK(DSPE-PG4-Glut)-NH2 (RWQPCPWESWTFCWDPGGGK([Glutaryl-PG4-DSPE])-NH2; disulfide 5-13; reading uncertain; also: printed as RWQPC*PWESWTFC*WDPGGGK(DSPE-PG4-Glut)-NH2) [Seq023-PL1]”, for which the Slope with fibrin (setting [4]) is given as 8.5.

Compound “Seq000-PL2: comparative lipopeptide prepared from Seq000(Adoa-Adoa) and DPPE (Ac-WQPCPWESWTFCWDPGGGK([AEEA-AEEA-Tuda-DPPE])-NH2; disulfide 4-12) [reference compound]” came in with a Slope in the assay with fibrin (setting [6]) of 4.6.
